# Data taken from publication PMC5802752 (Nature Communications, 2018).
# Target: T1, factor H-binding protein (fHbp) variant 1.1, recombinant (Neisseria meningitidis serogroup B MC58 …, UniProt Q9JXV4)
# T1 construct: not shown: His6, C-terminal, kept
# Assay: crystal structure
# Conditions: both partners purified
binder,measurement,value
"human Fab 1A12 (Fab, V domains shown) VH: EVQLVQSGAELKKPGESLKISCKASGYTFTNYWVVWVRQMPGEGLEWMGSIHPRDSDARYSLSFEGRVTFSVDKSTTTAYLQWSSLKVSDSAIYYCARLSQVSGWSPWVGPWGQGTLVTVSS VL: DIVMTQSPSSLSASVGDRVTITCRASQSISVSLNWYQQKPGKAPKVLIYAASRLQSGIPSRFSGSGSGSHFTLTISSLQPEDFATYYCQETYSDLMYTFGQGTKVEIK",binding result,binds
